According to patent US20070179113A1, “GM-CSF gene therapy for Crohn's disease using an improved regulated expression system” (Schering Aktiengesellachaft, priority 2005, published 2007):

How the values were obtained:
[1] = Pharmacokinetic study of mGM-CSF protein formulations, serum mGM-CSF ELISA; type: in vivo, BalbC mice; settings: i.m. injection
Experimental: FIG. 40 illustrates the use of ELISA for detection of murine GM-CSF. BalbC mice (n=5/group) were injected i.m. with 5 or 10 μg non-pegylated, or 5 μg pegylated mGM-CSF. Mice received either a single injection or 4 daily injections. Serum was obtained 1, 3, 6, and 12 hours following the single injection or the fourth injection. mGM-CSF levels in serum were measured using the ELISA from R&D (Minneapolis).
i. GM-CSF ELISA validation. A commercially available ELISA (R&D, Minneapolis) was validated for the detection of murine (m)GM-CSF in serum. In a pharmacokinetic study two formulations of mGM-CSF protein, non-pegylated or pegylated, were injectedi.m. and serum samples were assayed for mGM-CSF. […] The levels of non-pegylated mGM-CSF dropped rapidly within 3 hours following administration, whereas pegylated mGM-CSF was detectable over a 12 hour period.

[2] = test system: DSS-induced colitis; test: DSS-induced colitis model (7% DSS), proof of concept with pCMV-GMCSF plasmid DNA; type: in vivo, mice; settings: plasmid single injection day 0 + EP, drugs and protein daily
Experimental: Two concentrations of pCMV-mGMCSF were tested side by side with a control plasmid (pNull) and two mGM-CSF protein formulations, non-pegylated and pegylated in the DSS-induced colitis model (N=10/group). A single plasmid DNA injection was administered at day 0 followed by electroporation. Murine GM-CSF protein was injected s.c. daily. Disease was induced with 7% DSS in the drinking water and clinical scores (DIA) were recorded daily.
(§1) Likewise, the DSS-induced mouse colitis model is useful for evaluating therapies for UC, IBD and CD. Disease is induced in mice by daily administration of 5% or 7% dextran sodium sulfate (DSS) in the drinking water over 8 days. Disease progression is monitored by the Daily Activity Index (DAI), a cumulative index of: weight loss, stool consistency, and rectal bleeding, which mimics the symptoms of UC, IBD and/or CD.
vii. […] In this study the efficacy of pGMCSF plasmid DNA was evaluated side by side with Mesopram, Metronidazole, non-pegylated or pegylated mGM-CSF. The disease was induced using 7% DSS, administered daily in the drinking water. Mesopram, Metronidazole and mGM-CSF protein were administered daily, using the same dosing regimen as described for the validation study. pGMCSF plasmid DNA was injected at day 0 followed by electroporation. […]

[3] = test system: DSS-induced colitis in Balb/C mice; test: DSS-induced colitis model (5% DSS), validation, Disease Activity Index; type: in vivo; settings: daily treatment, Mesopram/Metronidazole 50 mg/kg IP, mGM-CSF 5 μg non-pegylated, 5 or 10 μg pegylated
Experimental: Disease was induced in BalbC mice (N=10/group) by DSS (5%) applied daily in the drinking water. Mesopram, Metronidazole, or yeast expressed non-pegylated respectively pegylated mGM-CSF, was administered daily over a period of 8 days. Clinical scores (Daily Activity Index (DAI), a cumulative index of: weight loss, stool consistency, and rectal bleeding) were recorded daily.
as §1
vi. DSS-induced colitis model. Prior to the gene delivery study the model was established and validated in Balb/C mice using non-pegylated and pegylated mGM-CSF protein. Disease was induced in Balb/C mice with 5% dextran sodium sulfate (DSS), provided in the drinking water every day over a period of 8 days. As the main endpoint, the Disease Activity Index (DAI, a cumulative index of: weight loss, stool consistency, and rectal bleeding) was recorded daily. […]

[4] = mGM-CSF concentration in sera at day 8 of the DSS colitis study; settings: final day of DSS study
Experimental: At day 8, the final day of the study, mGM-CSF concentrations were measured in sera of all mice.

Molecule	time within which serum levels dropped rapidly following administration [1]	disease scores (DAI) [2]	DAI score [3]	GM-CSF in sera at day 8 [4]	period over which detectable in serum [1]
non-pegylated mGM-CSF: yeast expressed non-pegylated murine GM-CSF protein (protein, UniProt P01587 18-141, looked up) Granulocyte-macrophage …: APTRSPITVTRPWKHVEAIKEALNLLDDMPVTLNEEVEVVSNEFSFKKLTCVQTRLKIFEQGLRGNFTKLKGALNMTASYYQTYCPPTPETDCETQVTTYADFIDSLKTFLTDIPFECKKPGQK	≤ 3 h	efficacious	significantly reduced	could be measured	–
pegylated mGM-CSF: pegylated murine GM-CSF protein (conjugate, UniProt P01587 18-141, looked up, PEG, pegylated murine GM-CSF protein) Granulocyte-macrophage …: APTRSPITVTRPWKHVEAIKEALNLLDDMPVTLNEEVEVVSNEFSFKKLTCVQTRLKIFEQGLRGNFTKLKGALNMTASYYQTYCPPTPETDCETQVTTYADFIDSLKTFLTDIPFECKKPGQK	–	efficacious	significantly reduced	–	12 h
